Measurements taken from US20230250168A1 (MABWELL SHANGHAI BIOSCIENCE, published 2023).

Experiments:
[1] = target: T1, antigen human CLDN18.2, His-tagged (human, UniProt P56856-2 1-261, limits assumed); test: BLI (Fortebio), His-tagged antigen on NTA probe; ratio to 8K13-xiIgG
T1 construct: Recombinant antigen used in the Fortebio assay (His-tagged, captured on NTA probe); also called His-tagged antigen; not shown: His tag
Protocol: (§1) The binding kinetic parameters of the chimeric antibodies and the humanized antibodies thereof to the antigen human CLDN18.2 were analyzed by a Fortebio (BLITZ pro1.1.0.28) instrument. Before performing the assay, an NTA bioprobe was soaked in PBS for 10 min, and the probe was then placed in PBS containing 100 nM antigen for 300 s to capture the His-tagged antigen. The probe was further subjected to a binding reaction with 100 nM antibody for a binding time of 400 s, and the probe was then transferred to PBS and subjected to a dissociation reaction for 600 s. When the assay was finished, data from which the response value of a blank control had been deducted were fitted to a 1:1 Langmuir binding model using software, and then the kinetic constants for antigen-antibody binding were calculated.

[2] = target: T1, antigen human CLDN18.2, His-tagged; test: BLI (Fortebio), His-tagged antigen on NTA probe, 100 nM antibody, 1:1 fit
Protocol: as §1

[3] = target: T1, antigen human CLDN18.2, His-tagged; test: BLI (Fortebio), His-tagged antigen on NTA probe; ratio to 52E22-xiIgG
Protocol: as §1

[4] = target: T1, antigen human CLDN18.2, His-tagged; test: BLI (Fortebio), His-tagged antigen on NTA probe; ratio to 16K15-xiIgG
Protocol: as §1

[5] = target: T2, human CLDN18.2 expressed on cell surfaces (human, UniProt P56856-2 1-261); test: cell-based or functional assay
[6] = target: T2, human CLDN18.2 expressed on cell …; test: cell-based or functional assay; remark: listed apart in the source
[7] = target: T1, antigen human CLDN18.2, His-tagged; test: SPR (BIAcore), antibody captured by anti-human Fc, antigen as analyte
Protocol: Referring to the instructions provided in the Human Antibody Capture Kit (cat No. BR-1008-39, Lot 10261753) from GE Healthcare, the analytical channel and the control sample channel on a CM5 sensor chip were first saturated and coupled with the maximum amount of anti-human Fc antibody, then buffers containing anti-human CLDN18.2 chimeric antibodies, humanized antibodies or a control antibody IMAB362 at 7.5 μg/ml were allowed to flow through the analytical channel and uniformly distribute. Finally, antigen samples diluted in gradient (the initial concentration was 20 nM and diluted by 1:3 to get 8 concentrations, and the concentration 0.741 nM was set to be repeated) were allowed to flow through both the analytical channel and the sample channel, and the photoreactions upon the binding of antibody to antigen were measured. Subsequently, the association constant Kon and dissociation constant Koff and affinity constant KD of each antibody were finally obtained by instrument software fitting analysis.

[8] = target: T2, human CLDN18.2 expressed on cell …; test: FACS of hybridoma supernatants on CHOK1 cells
Protocol: Balb/c mice were immunized with CHOK1 cells stably expressing human CLDN18.2 protein on cell surfaces. One month later, sera from the mice were analyzed by flow cytometry (FACS), and spleens were taken from mice having high antibody titers in sera. The spleen cells isolated by standard methods were fused with myeloma cells P3X63Ag8.653 using PEG or electrofusion methods. The fused hybridoma cells were seeded in 384 well plates, and after 10-14 days of culture, supernatants obtained were analyzed by FACS for antibody secretion by the hybridoma cells. Several clones were obtained that were able to bind to CHOK1 cells stably expressing human CLDN18.2 protein on cell surfaces and were not able to bind to CHOK1 cells stably expressing human CLDN18.1 protein on cell surfaces. Single cells of the obtained clones were obtained by Limiting Dilution, and each of the monoclonal hybridoma cell clones obtained after being diluted three times secreted only one antibody.

Binder	Koff/Koff(Xi-IgG) [1]	Kd [2]	Response [2]	koff [2]	kon [2]	Koff/Koff(Xi-IgG) [3]	Koff/Koff(Xi-IgG) [4]	CDC EC50, BxPC3 cells stably expressing human CLDN18.2 (CCK-8) [5]	CDC EC50, CHOK1 cells stably expressing human CLDN18.2 (CCK-8) [5]	CDC EC50, NCI-N87 cells stably expressing human CLDN18.2 (CCK-8) [5]	ADCC reporter EC50 (Jurkat NFAT-luciferase effector cells), BxPC3 target cells [6]	ADCC reporter EC50 (Jurkat NFAT-luciferase effector cells), CHOK1 target cells [6]	ADCC reporter EC50 (Jurkat NFAT-luciferase effector cells), NCI-N87 target cells [6]	Kd [7]	koff [7]	kon [7]	binding result [8]
8K13-hz00 (antibody, human IgG1, V domains shown, Humanized (direct CDR graft)) VH: QVQLVQSGAEVKKPGSSVKVSCKASGYAFSNYWMNWVRQAPGQGLEWMGQIYPGNGDTKYSGKFNSRVTITADESTSTAYMELSSLRSEDTAVYYCARFYYGNVMDYWGQGTLVTVSS VL: DIVMTQSPDSLAVSLGERATINCKSSQTLLNGGNQKNYLTWYQQKPGQPPKLLIYWASTRESGVPDRFSGSGSGTDFTLTISSLQAEDVAVYYCQNGYSYPLTFGQGTKLEIK	1.74	0.744 nM	0.133	0.000198 s⁻¹	266000 M⁻¹ s⁻¹												
52E22-hz00 (antibody, human IgG1, V domains shown, Humanized (direct CDR graft)) VH: QVQLVQSGSELKKPGASVKVSCKASGYTLTNYGMNWVRQAPGQGLEWMGWIRPNTGEPTYAEDFKGRFVFSLDTSVSTAYLQICSLKAEDTAVYYCARLYRGNTLDNWGQGTLVTVSS VL: DIVMTQSPDSLAVSLGERATINCKSSQNLLNSGNQRNYLTWYQQKPGQPPKLLIYWASTRESGVPDRFSGSGSGTDFTLTISSLQAEDVAVYYCQNGYSFPFTFGQGTKLEIK		0.309 nM	0.188	6.11e-05 s⁻¹	198000 M⁻¹ s⁻¹	1.72											
8K13-hz24 (antibody, human IgG1, V domains shown, Humanized; also called 8K13-hz24 IgG; 8K13-24 IgG) VH: QVQLVQSGAEVKKPGSSVKVSCKASGYAFSNYWMNWVRQAPGQGLEWMGQIYPGSGDTKYSGKFQSRVTITADKSTNTAYMELSSLRSEDTAVYYCARFYYGNVMDYWGQGTLVTVSS VL: DIVLTQSPDSLAVSLGERATINCKSSQTLLSGGNQKNYLTWYQQKPGQPPKLLIYWASTRESGVPDRFSGSGSGTDFTLTISSLQAEDLAVYYCQQGYSYPLTFGQGTKLEIK	3.5	1.51 nM	0.133	0.000399 s⁻¹	264000 M⁻¹ s⁻¹			28.5 nM	21.3 nM	57.7 nM	0.304 nM	0.589 nM	0.15 nM	28.5 nM	0.00202 s⁻¹	70900 M⁻¹ s⁻¹	
8K13-xiIgG (antibody, V domains shown, Murine variable regions on human IgG1 / kappa constant regions; also called 8K13 chimeric antibody) VH: QVHLQQSGAELVRPGSSVKISCKASGYAFSNYWMNWVRQRPGQGLEWIGQIYPGNGDTKYSGKFNSKDTLTADKSSNTAYMQLNSLTSEDSAVYFCARFYYGNVMDYWGQGTSVTVSS VL: DIVLTQSPSSLTVTAGEKVTMSCKSSQTLLNGGNQKNYLTWYQQKSGQPPKLLIYWASTRESGVPDRFTGSGSGTDFTLTISSVQAEDLAVYYCQNGYSYPLTFGVGTKLELKR	1	0.382 nM	0.134	0.000114 s⁻¹	298000 M⁻¹ s⁻¹									6.99 nM	0.000573 s⁻¹	81900 M⁻¹ s⁻¹	
murine antibody 48G12 (antibody, V domains shown, Mouse hybridoma antibody (supernatant)) VH: EVQLRQSGPELVKPGASVKMSCKASGYTFTTYIINWVKQKPGQGLEWIGYINPYNDDTRYNERVKGKATLTSDKSSSTAYMELSSLTSEDSAVYYCARFYFGNSFTYWGQGTLVTVSA VL: DIVMTQSPSSLPVTVGERVTMTCKSSQGLFNSGNQRNYLTWYQQKPGQPPKLLIYWASTRESGVPDRFTGSGSGTDFTLTISSVQAEDLAIYYCQNNYIYPLTFGAGTKLELK																	binds
murine antibody 50C14 (antibody, V domains shown, Mouse hybridoma antibody (supernatant)) VH: EVQLRQSGPELVKPGASVKMSCKASGYTFTTYIINWVKQKPGQGLEWIGYINPYNDGTRYNERVKGKATLTSDKSSSTAYMELSSLTSEDSAVYYCARFHFGNSFTYWGQGTLVTVSA VL: DIVMTQSPSSLPVTTGEKVTMTCKSSQGLFNNGNQRNYLTWYQQKPGQPPKLLIYWASTRESGVPDRFIGSGSGTDFTLTISSVQAEDLAIYYCQNNYIFPLTFGAGTKLELK																	binds
52E22-xiIgG (antibody, V domains shown, Murine variable regions on human IgG1 / kappa constant regions; also called 52E22 chimeric antibody) VH: QIQLVQSGPELKKPGETVKISCKASGYTLTNYGMNWVRQAPGKGLKWMGWIRPNTGEPTYAEDFKGRFVFSLETSAATAYLQITNLKSEDTSTYFCARLYRGNTLDNWGQGTSVIVSS VL: DIVMTQSPSSLTVTTGEKVTMSCKSSQNLLNSGNQRNYLTWYQQKPGQSPKLLIYWASTRESGVPYRFTGSGSGTDFTLTISSVQTDDLAIYYCQNGYSFPFTFGSGTKLEIKR		0.0996 nM	0.223	3.55e-05 s⁻¹	357000 M⁻¹ s⁻¹	1								1.11 nM	0.000545 s⁻¹	490000 M⁻¹ s⁻¹	

More lines, now with the values ahead:

Koff/Koff(Xi-IgG) [1]	Kd [2]	Response [2]	koff [2]	kon [2]	Koff/Koff(Xi-IgG) [3]	Koff/Koff(Xi-IgG) [4]	CDC EC50, BxPC3 cells stably expressing human CLDN18.2 (CCK-8) [5]	CDC EC50, CHOK1 cells stably expressing human CLDN18.2 (CCK-8) [5]	CDC EC50, NCI-N87 cells stably expressing human CLDN18.2 (CCK-8) [5]	ADCC reporter EC50 (Jurkat NFAT-luciferase effector cells), BxPC3 target cells [6]	ADCC reporter EC50 (Jurkat NFAT-luciferase effector cells), CHOK1 target cells [6]	ADCC reporter EC50 (Jurkat NFAT-luciferase effector cells), NCI-N87 target cells [6]	Kd [7]	koff [7]	kon [7]	binding result [8]	Binder
	0.0895 nM	0.176	2.15e-05 s⁻¹	240000 M⁻¹ s⁻¹		0.14											16K15-hz00 (antibody, human IgG1, V domains shown, Humanized (direct CDR graft)) VH: EVQLVESGGGLVQPGGSLRLSCAASGITLSTYAMSWVRQAPGKGLEWVSSIISGGITYYLDSVKGRFTISRDNAKNSLYLQMNSLRAEDTAVYYCARKYHGNALDYWGQGTLVTVSS VL: DIVMTQSPDSLAVSLGERATINCKSSQSLLNSGNQRNYLTWYQQKPGQPPKLLIYWASTRESGVPDRFSGSGSGTDFTLTISSLQAEDVAVYYCQNNYFYPLTFGQGTKLEIK
0.59	0.297 nM	0.139	6.73e-05 s⁻¹	227000 M⁻¹ s⁻¹													8K13-hz11 (antibody, V domains shown) VH: QVQLVQSGAEVKKPGSSVKVSCKASGYAFSNYWMNWVRQAPGQGLEWMGQIYPGNGDTKYSGKFNSRVTITADKSTNTAYMELSSLRSEDTAVYYCARFYYGNVMDYWGQGTLVTVSS VL: DIVLTQSPDSLAVSLGERATINCKSSQTLLNGGNQKNYLTWYQQKPGQPPKLLIYWASTRESGVPDRFSGSGSGTDFTLTISSLQAEDLAVYYCQNGYSYPLTFGQGTKLEIK
	0.36 nM	0.226	7.83e-05 s⁻¹	218000 M⁻¹ s⁻¹	2.21			2.08 nM			0.567 nM		1.18 nM	0.000172 s⁻¹	146000 M⁻¹ s⁻¹		52E22-hz12 (antibody, human IgG1, V domains shown, Humanized; also called 52E22-hz12 IgG; 52E22-12 IgG) VH: QIQLVQSGSELKKPGASVKVSCKASGYTLTNYGMNWVRQAPGQGLEWMGWIRPNTGEPTYAEDFKGRFVFSLDTSVATAYLQITSLKAEDTAVYYCARLYRGNTLDNWGQGTLVTVSS VL: DIVMTQSPDSLAVSLGERATINCKSSQNLLSSGNQRNYLTWYQQKPGQPPKLLIYWASTRESGVPDRFSGSGSGTDFTLTISSLQAEDLAVYYCQQGYSFPFTFGQGTKLEIK
	0.535 nM	0.17	0.0001 s⁻¹	188000 M⁻¹ s⁻¹		0.65											16K15-hz11 (antibody, human IgG1, V domains shown, Only positions of reverse mutations are printed; copies: 2 + 2) VH: EVQLVESGGGLVQPGGSLRLSCAGSGITLSTYAMSWVRQAPGKGLEWVSSIISGGITYYLDSVKGRFTISRDNAKNSLYLQMNSLRAEDTAVYYCARKYHGNALDYWGQGTLVTVSS VL: DIVMTQSPDSLAVSLGERATINCKSSQSLLNSGNQRNYLTWYQQKPGQPPKKLIYWASTRESGVPDRFSGSGSGTDFTLTISSLQAEDLAVYYCQNNYFYPLTFGQGTKLEIKR
	0.542 nM	0.238	0.000197 s⁻¹	363000 M⁻¹ s⁻¹	5.55												52E22-hz11 (antibody, human IgG1, V domains shown, Only the position of the reverse mutation is printed; copies: 2 + 2) VH: QIQLVQSGSELKKPGASVKVSCKASGYTLTNYGMNWVRQAPGQGLEWMGWIRPNTGEPTYAEDFKGRFVFSLDTSVATAYLQITSLKAEDTAVYYCARLYRGNTLDNWGQGTLVTVSS VL: DIVMTQSPDSLAVSLGERATINCKSSQNLLNSGNQRNYLTWYQQKPGQPPKLLIYWASTRESGVPDRFSGSGSGTDFTLTISSLQAEDLAVYYCQNGYSFPFTFGQGTKLEIKR
